Experimental data reported in paper PMC2606095 (Chemistry & biology, 2008).
Non-standard residues stand in square brackets, D forms with d. No end group written: not given here. pY = N[C@@H](Cc1ccc(OP(=O)(O)O)cc1)C(=O)O

T1: core domain of Signal Transducer and Activator of Transcription 1 (STAT1) (human)
T1 chain: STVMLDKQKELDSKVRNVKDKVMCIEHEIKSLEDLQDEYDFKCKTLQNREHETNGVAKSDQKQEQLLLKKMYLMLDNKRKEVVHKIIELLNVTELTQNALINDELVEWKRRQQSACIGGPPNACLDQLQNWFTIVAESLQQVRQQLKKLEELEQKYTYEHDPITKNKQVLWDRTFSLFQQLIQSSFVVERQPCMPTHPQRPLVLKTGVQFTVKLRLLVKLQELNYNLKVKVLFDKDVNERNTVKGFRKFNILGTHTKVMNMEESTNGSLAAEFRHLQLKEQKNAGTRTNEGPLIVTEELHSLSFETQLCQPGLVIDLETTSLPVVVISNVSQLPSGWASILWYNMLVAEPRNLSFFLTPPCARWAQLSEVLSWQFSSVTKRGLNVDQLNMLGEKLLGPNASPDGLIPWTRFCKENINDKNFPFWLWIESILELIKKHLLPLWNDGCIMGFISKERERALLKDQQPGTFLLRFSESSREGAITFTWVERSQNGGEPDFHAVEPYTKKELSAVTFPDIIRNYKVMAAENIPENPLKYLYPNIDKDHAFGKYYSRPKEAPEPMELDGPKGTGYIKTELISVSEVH

T2: PTB domain of Shc (human)
T2 sequence (P29353 whole entry, looked up): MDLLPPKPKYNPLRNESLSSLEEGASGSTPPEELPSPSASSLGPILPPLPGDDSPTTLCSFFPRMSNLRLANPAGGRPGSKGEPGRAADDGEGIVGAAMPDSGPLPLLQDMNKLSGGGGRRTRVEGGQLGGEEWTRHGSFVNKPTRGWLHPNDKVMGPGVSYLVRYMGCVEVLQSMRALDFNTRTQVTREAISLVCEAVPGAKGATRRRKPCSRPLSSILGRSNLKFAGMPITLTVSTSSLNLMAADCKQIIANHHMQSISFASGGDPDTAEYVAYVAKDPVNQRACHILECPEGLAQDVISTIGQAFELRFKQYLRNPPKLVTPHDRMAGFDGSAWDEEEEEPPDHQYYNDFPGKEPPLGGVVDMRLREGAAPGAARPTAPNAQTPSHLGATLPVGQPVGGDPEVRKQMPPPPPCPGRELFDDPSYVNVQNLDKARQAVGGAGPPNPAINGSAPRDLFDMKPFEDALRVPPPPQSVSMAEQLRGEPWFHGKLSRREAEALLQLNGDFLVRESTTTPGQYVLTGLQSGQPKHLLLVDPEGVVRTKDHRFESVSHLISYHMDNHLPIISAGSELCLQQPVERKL


Legend:
[1] = target: T1, core domain of Signal Transducer and …; assay: peptide or protein array
[2] = target: T2, PTB domain of Shc (human); assay: peptide or protein array

| Kd [1] [nM] | Kd [2] [nM] | Binder |
| --- | --- | --- |
| 2060 | – | {5(6)‑TAMRA}-VQEDSSTQR[pY]SADPTVFD [ErbB4-1128 phosphopeptide] |
| – | < 1000 | {5(6)‑TAMRA}-AKKAFDNPD[pY]WNHSLPPD [ErbB4-1242 phosphopeptide] |
| – | < 1000 | {5(6)‑TAMRA}-DLQALDNPE[pY]HNASNGPD [ErbB4-1188 phosphopeptide] |
| 1550 | – | {5(6)‑TAMRA}-QAFNIPPPI[pY]TSRARIDD [ErbB4-1035 phosphopeptide] |
